T1: oxidized form of human α-defensin HD5 (HD5 with three intramolecular disulfide bonds) (human, six cysteine residues form three intramolecular disulfide bonds (oxidized form))
T1 construct: Chemically synthesized mature HD5 (32 amino acids), oxidized and purified by reverse-phase chromatography; confirmed by MALDI-TOF MS; also called ox-HD5; DEFA5
T1 peptide: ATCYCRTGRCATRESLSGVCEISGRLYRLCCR

T2: reduced form of HD5 (HD5 without any intramolecular disulfide bond) (human, no intramolecular disulfide bonds (reduced form))
T2 construct: Chemically synthesized mature HD5 before the oxidation treatment; also called r-HD5
T2 peptide: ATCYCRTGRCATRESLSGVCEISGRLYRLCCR


Key:
[1] = target: T1, oxidized form of human α-defensin HD5 …; experiment: indirect ELISA screening, plate coated with 1 µg/ml ox-HD5, hybridoma supernatant
Protocol: Autoimmune disease mice (C3H/HeJJmsSlc-lpr/lpr available from Japan SLC, Inc.) injected with an adjuvant according to a conventional method were immunized with ox-HD5 by three times of intra-abdominal injection (0.2 mg each time). Later, cells were collected from the spleen of the immunized mice according to a conventional method, and then fused with a mouse myeloma cell line P3U1 with use of 50% polyethylene glycol 1500 (Sigma-Aldrich Co. LLC) to prepare hybridomas. Each hybridoma clone was screened by indirect ELISA, and subcloned four times by a limiting dilution method.
The indirect ELISA was carried out by the following procedures. Wells of a flat-bottomed microtiter plate (Nunc) were coated with 1 μg/ml of ox-HD5 dissolved in Ca²⁺/Mg²⁺-free phosphate buffered saline (PBS), and then incubated overnight at 4° C. After three times of washing with PBS containing 0.1% Tween 20 (PBS-T), culture supernatant from each hybridoma clone was added to the wells, and incubated at 37° C. for 1 hour. […] 100 μL of 3,3′,5,5′-tetramethylbenzidine (TMB) substrate buffer (KPL) was added to each well, then the plate was incubated at 25° C. for 30 minutes, and then absorbance at 405 nm was measured with use of a microplate reader Multiscan FC (Thermo Scientific).

[2] = target: T2, reduced form of HD5 (HD5 without any …); experiment: sandwich ELISA, capture 12-1 (1 mg/ml) with detection 39E-7 (0.5 mg/ml), antigen 0 to 60 ng/ml
[3] = target: T1, oxidized form of human α-defensin HD5 …; experiment: sandwich ELISA, capture 12-1 (1 mg/ml) with detection 39E-7 (0.5 mg/ml)

Binder | binding result [1] | binding result [2] | binding result [3]
monoclonal antibody 12-1 (antibody, V domains shown, constant regions are not; Immobilized on the plate as capture antibody in the sandwich ELISA; also called capture antibody 12-1; anti-ox-HD5 monoclonal antibody according to a)) VH: QVQLQQSGAELARPGASVKLSCKASGYTFTSYGISWVKQRTGQGLEWIGEIYPRSGNTYYNEKFKGKATLTADKSSSTAYMQLSSLTSEDSAVYFCARDYDGFPYFDYWGQGTTLTVSS VL: DIVLTQSPASLAVSLGQRATISCRASESVDSYGYSFMHWYQQKPGQPPKLLIYRASNLESGIPARFSGSGSRTDFTLTINPVEADDVATYYCQQSNEDPRTFGGGTKLEIK | binds | binds | –
monoclonal antibody 39E-7 (antibody, V domains shown, constant regions are not; also called detection antibody 39E-7; anti-ox-HD5 monoclonal antibody according to b)) VH: EVQLQQSGPELVKPGASVKISCKASGYSFTGSYMNWVKQSPEKSLEWIGEINPSTGGTTHNQKFKAKATLTVDTSSSTFYMQLKSLTSEDSAVYYCARDYAGSYDWYFDVWGAGTTVTVSS VL: DIKMTQSPSSMYASLGERVTITCKASQDINSYLSWFQQKPGKSPKTLIYRANRLVDGVPSRFSGSGSGQDYSLTISSLEYEDMGIYYCLQYDEFPYTFGGGTKLEII | – | binds | binds
